This passage reports Kd results from patent US20130177979A1, “METHODS AND COMPOSITIONS FOR CELL PERMEABLE STAT3 INHIBITOR” (University of Central Florida Research Foundation, Inc., priority 2010, published 2013).

In assay [1] the target is T1, GpYIKTE (pY701Stat1) (Homo sapiens, UniProt P42224).
T1 construct: the Stat1 pY701 peptide, GpYIKTE
The experiment in a line: SPR binding to Stat1 pY701 peptide GpYIKTE. The conditions noted are these: immobilized on sensor chip, GpYIKTE as analyte. Background: Surface plasmon resonance follows binding to a sensor surface in real time, without labels.
Method: (§1) Association and dissociation measurements were taken and the affinities were determined using Qdat software.
(§2) Surface plasmon resonance analysis. […] Various concentrations of pTyr peptides (analyte) in running buffer (1×PBS, 0.5% DMSO) were passed over the sensor chip to produce response signals. The response signals were referenced by subtracting the response generated by passing across a surface without the analytes. The association and dissociation rate constants were calculated using the Qdat software. The ratio of the association and dissociation rate constants was determined as the affinity (KD).

Assay [2] concerns the target GpYLPQTV (IL-6R/gp130) (Homo sapiens, UniProt P40189, S904G). The conditions noted are these: SPR; SPI, Stat3 SH2 domain or Stat3 immobilized on sensor chip, GpYLPQTV as analyte.
Method: as §1, §2
Assay [3] deals with T2, PpYLKTK (pY705 Stat3) (Homo sapiens, UniProt P40763).
T2 construct: the Stat3-derived pTyr705 peptide, PpYLKTK
The experiment in a line: SPR binding to Stat3-derived pTyr705 peptide PpYLKTK. Conditions: immobilized on sensor chip, PpYLKTK as analyte.
Method: as §1, §2

Assay [4] deals with T3, PEpYINQS (pY1068EGFR) (Homo sapiens, UniProt P00533).
T3 construct: the pY1068 of EGFR, PEpYINQS
In words: SPR binding to EGFR pY1068 peptide PEpYINQS. The conditions noted are these: immobilized on sensor chip, PEpYINQS as analyte.
Method: as §1, §2

The target of assay [5] is T4, GpYVKPQ (pY694Stat5) (Homo sapiens, UniProt P42229).
T4 construct: the pTyr peptide of Stat5, GpYVKPQ
In words: SPR binding to Stat5 pTyr peptide GpYVKPQ. Conditions: immobilized on sensor chip, GpYVKPQ as analyte.
Method: as §1, §2

For assay [6], the target named is T5, PVpYHNQP (pY1086EGFR) (Homo sapiens, UniProt P00533).
T5 construct: the pY1086 peptide of EGFR, PVpYHNQP
In words: SPR binding to EGFR pY1086 peptide PVpYHNQP. Conditions: immobilized on sensor chip, PVpYHNQP as analyte.
Method: as §1, §2

What is called Kd is the equilibrium constant for the complex coming apart. Higher therefore signals lower affinity. On to “Stat3 SH2 domain: Purified His-tagged Stat3 SH2 domain, recombinant protein expressed in BL21(DE3) cells (FISKERERAILSTKPPGTFLLRFSESSK)”, for which the Kd in assay [1] stood at 6.6 µM; in assay [2], 30 nM; in assay [3], 1600 nM; in assay [4], 400 nM; in assay [5] it was 5.2 mM; in assay [6], 2600 nM.

For “full-length Stat3: Purified His-tagged Stat3 protein, recombinant, expressed in BL21(DE3) cells”, the Kd in assay [1] was found to be 4.4 µM; in assay [2] it was 20 nM; in assay [3], 900 nM; in assay [5] it was 1.2 mM.
